Experimental data as given in article PMC3338121.

The substances below were run against Recombinant soluble empty (peptide free) HLA-DR1 (human) (assay: competitive peptide binding assay).

| Substance | Kd [nM] |
| --- | --- |
| P2,3,7,10 SDPG peptide (HA_(306–319) substituted at P2, P3, P7 and P10), unlabeled | 313000 |
| P2,10 SG peptide (HA_(306–319) substituted at P2 and P10), unlabeled | 373 |
| P2,7,10 SPG peptide (HA_(306–319) substituted at P2, P7 and P10), unlabeled | 605 |
| P2 S peptide (HA_(306–319) substituted at P2), unlabeled | 97.2 |
